# Laboratory results published in article doi:10.1101/2021.05.06.441046.
# How the values were obtained:
# [1] = target: 5P_FL2 spike (six-proline FL2 spike with P986 reverted to K986) (SARS-CoV-2) (UniProt P0DTC2); assay: negative-stain electron microscopy
# [2] = target: 5P_FL2 spike (six-proline FL2 spike with P986 reverted to K986) (SARS-CoV-2) (UniProt P0DTC2); assay: SEC
# [3] = target: 6P_DS3 spike (six-proline spike with the inter-protomer disulfide Y707C/T883C) (SARS-CoV-2) (UniProt P0DTC2); assay: non-reducing SDS-PAGE
# [4] = target: 6P_DS3 spike (six-proline spike with the inter-protomer disulfide Y707C/T883C) (SARS-CoV-2) (UniProt P0DTC2); assay: negative-stain electron microscopy
# [5] = target: 6P_DS3 spike (six-proline spike with the inter-protomer disulfide Y707C/T883C) (SARS-CoV-2) (UniProt P0DTC2); assay: SEC
# [6] = target: VFLIP_D614G spike (VFLIP variant bearing the D614G mutation) (SARS-CoV-2) (UniProt P0DTC2); assay: cryo-EM structure
substance,measurement,setting,value
5P_FL2 spike (six-proline FL2 spike with P986 reverted to K986) (from UniProt P0DTC2) (domain or fragment),stoichiometry N,[1],3
same,stoichiometry N,[2],3
6P_DS3 spike (six-proline spike with the inter-protomer disulfide Y707C/T883C) (from UniProt P0DTC2 13-1208) (domain or fragment),stoichiometry N,[3],3
same,stoichiometry N,[4],3
same,stoichiometry N,[5],3
VFLIP_D614G spike (VFLIP variant bearing the D614G mutation) (from UniProt P0DTC2) (domain or fragment),stoichiometry N,[6],3
